These results are taken from article PMC6586363, “Phenotypic selection with an intrabody library reveals an anti-apoptotic function of PKM2 requiring Mitofusin-1” (PLoS Biology, 2019).

Data set [1] deals with the molecule itself. Put plainly: native gel or EMSA; blue native gel electrophoresis of recombinant PKM2 (WT or mutant) or PKM1, alone or with FBP and/or scFv 5; resolves dimer and tetramer forms.
Data set [2] concerns the target T1, pyruvate kinase M2 (PKM2), endogenous in 293T cells (Homo sapiens (Human)., UniProt P14618).
T1 construct: pyruvate kinase isoform M2 (PKM2), product of the PKM gene with exon 10; also called 55-kD protein; source: endogenous, HEK293T lysate
As to the kind of experiment: affinity purification with mass spectrometry; lysate (1% Triton X-100) of 293T cells expressing FLAG/Strep-tagged intrabody; anti-FLAG M2 beads 2 h at 4°C, elution with 3X FLAG peptide, then Strep-Tactin; SDS-PAGE with silver stain, bands identified by MALDI TOF/TOF. Particulars: partners not purified.

Data set [3] addresses T2, recombinant human PKM2, wild type (human, UniProt P14618).
T2 construct: Runs as dimer and tetramer on blue native gels; also called WT PKM2; His-hPKM2; source: E. coli BL21 (DE3), purified (Ni-NTA)
As to the kind of experiment: native gel or EMSA; blue native gel electrophoresis; recombinant scFv 5 mixed with recombinant PKM2 (WT or mutant) or PKM1 at various molar ratios, reaction volume 20 μl. Particulars: both partners purified.

T1 sequence (P14618 whole entry, canonical isoform): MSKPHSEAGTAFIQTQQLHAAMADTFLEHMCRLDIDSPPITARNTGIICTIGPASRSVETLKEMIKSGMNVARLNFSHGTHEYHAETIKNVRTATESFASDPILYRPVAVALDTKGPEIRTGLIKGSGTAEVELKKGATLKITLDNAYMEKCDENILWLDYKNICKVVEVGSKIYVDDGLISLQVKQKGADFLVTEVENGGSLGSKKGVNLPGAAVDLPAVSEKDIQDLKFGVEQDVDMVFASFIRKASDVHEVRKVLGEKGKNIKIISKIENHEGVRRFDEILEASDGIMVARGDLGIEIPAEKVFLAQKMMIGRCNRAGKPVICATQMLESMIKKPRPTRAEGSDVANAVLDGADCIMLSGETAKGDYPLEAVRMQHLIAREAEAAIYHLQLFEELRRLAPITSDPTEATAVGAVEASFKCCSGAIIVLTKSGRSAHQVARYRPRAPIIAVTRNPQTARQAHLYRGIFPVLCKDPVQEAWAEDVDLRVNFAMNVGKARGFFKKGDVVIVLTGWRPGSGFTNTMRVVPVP
T2 sequence (P14618 whole entry): as the sequence (P14618 whole entry, canonical isoform) above

B1: recombinant PKM2 (K270M) (enzyme)
chain: not shown
notes: human pyruvate kinase isoform M2 with K270M, plasmid pET28a-His-hPKM2 (K270M); source: E. coli BL21 (DE3), purified (Ni-NTA)
The stoichiometry N is the number of molecules, sites or subunits per partner or assembly. As for B1, in data set [1], the “stoichiometry N” value came to 2.

B2: recombinant PKM2 (K422R) (enzyme)
chain: not shown
notes: human pyruvate kinase isoform M2 with K422R; also called stably tetrameric PKM2 mutant; source: recombinant; WT and mutant PKM2 proteins from E. coli BL21 (DE3), purified (Ni-NTA)
Turning to B2, the “stoichiometry N” value in data set [1] was 4.

B3: intrabody 5 (IB5) (scFv, V domains shown)
VH: QVQLVETGPGLVKPSETLSLRCTVSGGSFDNYYWNWIRQPPGKGLEYIGYVFPSTGATNYNPSLGSRVTISLDTSKNQFSLTLTSVTTADTAIYYCVRSGHDLWTGSTWFDPWGQWTTVTVSS
VL: EIVLTQSPGTLSLSPGERATLSCRASQSVSSSYLAWYQQKPGQAPRLLIYGASSRATGIPDRFSGSGSGTDFTLTISRLEPEDIAVYYCQQRSNWPRTFGQGTKVEIK
notes: human VH and VL joined by a flexible peptide linker, from a naive human combinatorial scFv library; Expressed without a secretion leader from an EF1alpha lentiviral vector; The tandem Strep-tag was added for the target immunoprecipitation construct; also called clone 5; scFv 5; source: HEK293T, infected with intrabody lentivirus, in lysate; not shown: FLAG, C-terminal, kept
B3: in data set [2], the binding result is recorded as “binds”.

B4: recombinant monovalent scFv 5 (corresponding to IB5) (scFv, V domains shown)
VH: QVQLVETGPGLVKPSETLSLRCTVSGGSFDNYYWNWIRQPPGKGLEYIGYVFPSTGATNYNPSLGSRVTISLDTSKNQFSLTLTSVTTADTAIYYCVRSGHDLWTGSTWFDPWGQWTTVTVSS
VL: EIVLTQSPGTLSLSPGERATLSCRASQSVSSSYLAWYQQKPGQAPRLLIYGASSRATGIPDRFSGSGSGTDFTLTISRLEPEDIAVYYCQQRSNWPRTFGQGTKVEIK
notes: as the scFv of m1; also called purified scFv 5; recombinant scFv; source: E. coli Rosetta (DE3)pLys, pET28a, purified (Ni-NTA)
As to B4, the binding result in data set [3] is “binds”.
